Experimental data published in the RNAGym collection of RNA variant scans (doi:10.1073/pnas.2313332121).

B1: TPR t1 (parent)
chain: GACCAAUCUGCCCUCAGAGCUCGAGAACAUCUUCGGAUGCAGAGGAGGCAGGCUUCGGUGGCGCGAUAGCGCCAACGUCCUCAACCUCCAAUGCAUCCCACCACAUGAUGAUGCCUGAAGAGCCUUGGUUUUUUG

Variants of: B1
Test: polymerase ribozyme fitness, log enrichment relative to wild type (log ratio); higher = more active; in vitro selection for triplet polymerase activity
In short: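 Mutant libraries of both subunits of a heterodimeric triplet polymerase ribozyme were PCR-built, transcribed, and selected once in triplicate, with frozen incubation at −7 °C and capture of gel-excised extended constructs on streptavidin beads before RT-PCR. Illumina sequencing of input and output libraries was filtered to genotypes with ≥10 input reads and ≥1 read per output. Fitness is the logarithm of genotype enrichment over wild-type enrichment, using inverse-variance-weighted replicate averages. The logarithm is base 2.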

| Variant | polymerase ribozyme fitness (log ratio) |
| --- | --- |
| C97U C124U | 0.498 |
| A100C G122A | -1.49 |
| C104A A111U | -3.1 |
| U116C G117U | -1.01 |
| G113U A118U | -2.55 |
| G107A A119G | -4.92 |
| A111C G122A | -0.308 |
| C115A U129A U131C | -0.649 |
| U106A G120A | 0.348 |
| A121C U126A | 0.358 |
| C98A U133G | -6.12 |
| C98U U129G | -2.41 |
| C99U G122U | -3.2 |
| G110A G120A | -1.23 |
| C97A U129A | -4.83 |
| C114A U131A | -0.246 |
| G120U C124U | 1.38 |
| U112A C123A | 1.45 |
| C99U G110U A121G | -5.37 |
| C101G U112C | -0.331 |
| A100U G120A G127C U131A | -2.13 |
| C102G U112A C123U G127A | -5.25 |
| C102U G113A U129A | -3.17 |
| A121U C124U | 2.15 |

| Variant | polymerase ribozyme fitness (log ratio) |
| --- | --- |
| C97G C115G | -3.69 |
| G113A C115A | -3.51 |
| G120C G127C | -0.522 |
| G120C G127A | 0.0309 |
| C101A U109A A111G G120U C124U | -6.02 |
| G107A U109A A119G | -4.55 |
| C97U C115U | -2.49 |
| C98A C114U C123G U131C | -5.24 |
| C97A C104A | -5.08 |
| G113C U125G | -2.58 |
| G113C U125C | -2.26 |
| U106C U116G | -2.03 |
| G117C A119U | -2.92 |
| A103C C123G | -2.94 |
| G107A A111U | -5.27 |
| G120A U130G | 0.245 |
| G120A U130C | 0.856 |
| U96G U106C | -1.3 |
| C114A U129G U130C | -2.79 |
| U112G | 0.661 |
| U112C | 1.39 |
| U112A | 1.34 |
| U106C A118U G120A | 0.234 |
| C97G A118U U126A | -5.69 |

| Variant | polymerase ribozyme fitness (log ratio) |
| --- | --- |
| G117U A119U | -3.92 |
| G113C G120C | -2.85 |
| G117U U133A | -3.13 |
| A100U G113A | -1.88 |
| C98A G120C | -4.15 |
| U116C U133A | -0.508 |
| A111G U126C | 0.0972 |
| C102A A118G | -2.42 |
| C98U C102A | -5.43 |
| G120U C123A | -0.201 |
| G120A C123U | 1.96 |
| A121C C123U | 0.54 |
| C101A U116A | -3.39 |
| G113A C123A | -1.45 |
| G113A C123U | -1.32 |
| C102U G110U | -4.26 |
| C102U G122U | -1.26 |
| C97G G120U U126C | -4.9 |
| A111C U112G G113U U116A C124A | -3.18 |
| C99U U132A | -2.96 |
| C97U C101U U116G A118G | -4.15 |
| U116G C123A | -3.25 |
| A103G A118G | -4.56 |
| G110U U130A | -1.27 |

| Variant | polymerase ribozyme fitness (log ratio) |
| --- | --- |
| G110U U130C | -1.04 |
| C101U C114G | -3.89 |
| A103C C104U U116C | -6.48 |
| C102A A111C G120C | -3.12 |
| C104U C124U | 0.788 |
| A100C G110U U112A | -5.07 |
| U106A C123U | 0.563 |
| G107C C115A | -6.69 |
| C97U G120U U130C | -0.251 |
| G113U G122U | -2.45 |
| U112A A121U U125A | 1.36 |
| C104A G110A | -3.18 |
| A119C A121U | -1.38 |
| C101G C104U | -2.98 |
| U106G C115U | -4.44 |
| A100C U130G | -0.881 |
| C114A C123U | -3.16 |
| C101A G120C | -0.0201 |
| C97U A103U G113C C115A U116A | -6.04 |
| A121C U129A | -1.04 |
| U106G G120C | -0.678 |
| C104U U112C | 0.772 |
| C98U U106G U133G | -2.9 |
| A100C | -0.919 |

| Variant | polymerase ribozyme fitness (log ratio) |
| --- | --- |
| A100G | -2.32 |
| A100U | -0.595 |
| A105G G117A | -4.69 |
| C114U G120A C123U | -1.64 |
| A121U C123G | 1.92 |
| G113A G122C G135C | -0.874 |
| C114A | -1.39 |
| C114G | -2.37 |
| C114U | -1.7 |
| C98U C124G | -0.72 |
| G117C A121G | -2.23 |
| G113U U134G | -1.78 |
| C102U U130C | -1.87 |
| U109C C123U | -4.63 |
| G120C A121U | 2.44 |
| G117U U130C | -2.04 |
| C101U U125A | -0.975 |
| C104U C123A | 0.201 |
| C104A U112G | -1.47 |
| A103G G117A | -4.42 |
| C102U C104A U130C | -0.457 |
| C101U C115U C124U | -0.886 |
| U109G G110A | -3.89 |
| A105U G120U | -2.54 |

| Variant | polymerase ribozyme fitness (log ratio) |
| --- | --- |
| C98A | -5.14 |
| C98G | -5.78 |
| C98U | -1.2 |
| C102A U109G | -2.56 |
| C102U C114G C124G | -2.64 |
| A121G G128A | 0.956 |
| C102G A111C A118C U129C | -5.54 |
| G113C G122A C123U | -3.7 |
| C102U C124U | -0.914 |
| C97U G110U A111G | -3.06 |
| C99G G110C | -7.23 |
| C102G U112A G127U | -4.33 |
| G120U G127C | -0.262 |
| G120U G127U | 1.64 |
| U116C U131G | -1.05 |
| C102U A118G | -1.73 |
| G107A G120C | -3.25 |
| C114U U125A | -3.07 |
| G120U U132A | 0.126 |
| C98U C114A | -3.47 |
| C114A A121U | -1.18 |
| C115U G120A | -2.24 |
| U116G U125A U133A | -4.19 |
| G117C U131C | -3.27 |

| Variant | polymerase ribozyme fitness (log ratio) |
| --- | --- |
| G117C G128A | -5.33 |
| A111G G113U U129G U131A | -6.64 |
| U106A G120C U130G | 0.744 |
| C99U A118G | -2.48 |
| A105U G113U | -5.9 |
| G113C U130G | -2.88 |
| C101U A121G | 1.57 |
| A103G G110A | -5.82 |
| A103G G110U | -3.83 |
| A103G G113A | -4.15 |
| C99A C124U | -4.66 |
| G113A G120U | -2.35 |
| C104U U133C | 0.657 |
| A103C U133G | -4.45 |
| C104A C114U G127A U131A | -6.47 |
| C97U U112G | -0.123 |
| A100U G128A | -2.05 |
| A111G C124A | 1.23 |
| C115U U129G | -2.15 |
| C104A G120A | -0.701 |
| A111U C124U | -3.09 |
| A121G U125A | 2.32 |
| G113U A119C G122U | -4.35 |
